Series [1] in a line: purified protein yield per well (BCA); higher = higher soluble expression. The gist of the method: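 The measured quantity is purified protein yield per well, determined with the Pierce Rapid Gold BCA kit. Anything below 25 ug (0.1 mg/mL) lies under the detection threshold. Enzymes were expressed in E. coli C41(DE3) in 2 mL autoinduction cultures with 100 µg/mL kanamycin at 37 °C for 2 h, then 18 °C for 40 h, and purified on an OT-2 robot using Ni-charged magnetic beads and SUMO protease release.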

A short description of series [2]: PET hydrolysis, aromatic products released after 48 h (umol product/mg enzyme); higher = more PET depolymerization activity. Particulars: substrate: cryPow. On the procedure:
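HTP-purified, SUMO-cleaved, tagless PET hydrolase candidates (5 ug, 1.43 mg/g PET) were incubated 48 h without shaking with 3.5 mg amorphous PET film (aFilm) or crystalline PET powder (cryPow) in 0.5 mL buffer: NaCitrate pH 4.5/5.5, NaPhosphate pH 6.5/7.5, glycine pH 8.5. Incubation was at 40 or 60 C. Aromatic products (TPA, MHET, BHET) in the supernatant were quantified by UV absorbance at 260/280 nm relative to buffer blanks and expressed per mg enzyme. LCC-ICCG was the positive control on every plate.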

Turning to “DQIGQAPTASNITGDGSFAVTSSAVSGQTGFGGGTVYYPTQTGTYPVVAIMPGFLELWDAIKWMGPRLASWGYVVVGVNPNSVFDLPDSRGSQLLAALNWAVGSAPSAVQSRADGTRRGVVGYSMGGGGTLEALSRDTSGKVLAGVAFSPWDTNQNWSTVRQPEFIVGAQNDTVAPPAQHAIPFYNSLAGPKTYVELAGADHLWPTSDNPTGSRAMVSWLKRWLNSDSRFTPFTCGFTGSAISASMSNAC [ESM047]”, the “purified protein yield per well” value in series [1] came to 48.3 µg. Besides, the PET hydrolysis in series [2] (40 °C, pH 4.5) amounted to 20; in series [2] (40 °C, pH 5.5), 55; in series [2] (40 °C, pH 6.5), 47; in series [2] (40 °C, pH 7.5) it was 8.
Turning to “GESPGAAVVAFAGHAKGPAPTEQSVRAQQGPFTTDKLVVPAQAGRGFNKGTIYYPDDTSQGTFGAVAVIPGFLEGESAISWLGPTLASHGFITLTLAPNATTDYPEPRSNQLLAAVDWLANQSPVKDRVDPNRLAVAGHSMGGGGTLIAASKNPALKAAVPLTPWNPHSNFSDVTVPTLIIGADRDFIAPTFMHASPMYNSLKAKQDQAYLKLKNADHFATNRYNATATAYTVSWLKRYVDEDTRYSQFLCPVKSGFQLTCPI [DP011]”, in series [1], the “purified protein yield per well” value was determined as 26 µg. Also, the PET hydrolysis was < 3 in series [2] (40 °C, pH 5.5); < 3 in series [2] (40 °C, pH 6.5); < 3 in series [2] (40 °C, pH 7.5); < 3 in series [2] (40 °C, pH 8.5).
For the sequence “DTGSHERGPDPTEQALEARSGPFDTDDERVSSLGASGFGGGTIYYPEDTSEGDFGAVALAPGYTASSTSYSSLAERIASHGFVVLAFDTNTRYDQPNSRGRQMESALEYLTEDSDVTDRIDTDRQAVSGHSMGGGGTLAAADDNPDLQAAVPLTPWHTQKSWSGMQVPTMIIGAENDSIASVRSHSIRFYESLPGSLEKGYAEVDGASHFAPNSNDDTVAKYTITWLKRFVDNDTRYEQFLCPPPDSGGWGDDLSDYRDSCPTG [DP052]”, the “purified protein yield per well” value in series [1] was found to be 36 µg. The PET hydrolysis in series [2] (40 °C, pH 5.5) was < 3; in series [2] (40 °C, pH 6.5) it was < 3; in series [2] (40 °C, pH 7.5) it was < 3; in series [2] (40 °C, pH 8.5), < 3.
For “ATAAPLPHAAADNPYQRGPDPTIAMIESTRGPFATASVSVPPGNGFNGGMIYYPTDTSQGTWGALAIVPGYTALFANEEAWMGPWLSSFGFVVIGVETNSRTDFDTARGTQLLAALDYLTTKSPVHDRVDPNRLSVLGHSMGGGGVVYATEHRPSLKAAVALAPFSPSQNMSTDTVPTMVIGGQNDTVVTPSYVDGLYATLPATTPSDFAQIAGADHVYYTHPNNVEMKLLIPWLKTFVDNDTRYTQFLCPTLPDPSTVSAYRPKCPYVPGGGTTPPPTGNTGPLHAVGAGKCLNAGASGSQAQIQDCTGGASQVWTHTDANQLSVTNGSQLCLDASGQGTSPGTKVITWACNGQPNQQWTVNSDGTVKGVQSGLCLDVSGASTASGALVQLWTCNGQPNQQWRLG [TEP062]”, the “purified protein yield per well” value in series [1] came out at 85.2 µg. The PET hydrolysis in series [2] (40 °C, pH 4.5) was < 3; in series [2] (40 °C, pH 5.5), < 3; in series [2] (40 °C, pH 6.5), < 3; in series [2] (40 °C, pH 7.5), < 3; in series [2] (60 °C, pH 4.5), < 3; in series [2] (60 °C, pH 5.5), < 3. For the same sequence, the PET hydrolysis in series [2] (60 °C, pH 6.5) is < 3; in series [2] (60 °C, pH 7.5) it was < 3.
“AETTTQHGPDPTEGSITAPTGPFQTDQKTVPRSSVQGFGGGTIYYPTETSQGTFGAVTIAPGYTAGKESLAWLGPRLASQGFVVFTIDTITTSDQPDSRAKQLMASLDYLTGDSDVRDRIDTSRLAVMGHSMGGGGTLEAARDNRNLKAAIPMTPWDTTKDFSGVQTPTLIIGAQNDTIAPVAQHAKPFYGSLPDDPGKAYLELAGASHFAPNQDNTTIAKSSIAWLKRFVDDDTRYDQFLCPPPQDAEISDYQSTCPY [TEP037]”: the “purified protein yield per well” value in series [1] is 77 µg. For the same sequence, the PET hydrolysis in series [2] (40 °C, pH 4.5) was < 3; in series [2] (40 °C, pH 5.5), 5; in series [2] (40 °C, pH 6.5), < 3; in series [2] (40 °C, pH 7.5), < 3; in series [2] (60 °C, pH 4.5) it was < 3; in series [2] (60 °C, pH 5.5) it was < 3. Moreover, the PET hydrolysis in series [2] (60 °C, pH 6.5) was < 3; in series [2] (60 °C, pH 7.5) it was < 3.
As to “DTNPFQRGPAPTEASVSAQKGPFATAQVNVPANSGEGFNDGTIYYPTDTSQGTFGAIAVMPGFLSPQDWIRWYGPTLASQGFVVMTLDSKGFIDSPTARGNQLLAALDYLTTKSKVVDRIDTSRLGVVGWSMGGGGALESTYNRPSLKADVALAPWHVGLDQSKITVPSLILADDNDWLAPTGSFAKPFYAGIPESTNKAFIELKNANHFTFTGYNKNIAKYAVSWLKRFVDDDTRYDQFLCPKPATNNEISQSEETCPLH [DP054]”, the “purified protein yield per well” value in series [1] was determined as 39 µg. The PET hydrolysis in series [2] (40 °C, pH 5.5) is 5; in series [2] (40 °C, pH 6.5), 7; in series [2] (40 °C, pH 7.5), < 3; in series [2] (40 °C, pH 8.5), < 3.
Turning to “MPQQAQAGPGNPYERGPAPTEASVTAERGPFAVSQKAVPESADGRFNKGTVYYPTDTSQGTFGAVAISPGFVSPEAAVGWLGPRLASQGFVVMTLETNTPLDFPDQRADQLLGALDWLTTSSDVRERIDASRLAVAGHSMGGGASLRASEKRPTLQAAVPLTPWHTDKTWEKDPVPTLVVGAENDTVAPVAEHAEPFYSSLSAAPEKAYLELEGADHLAPVAPNVTVAKYAISWLKRYVDDDTRYEQFLCPPPRPSSTISEYRDTCPGS [TEP193]”, the “purified protein yield per well” value in series [1] was 50.4 µg. In addition, the PET hydrolysis in series [2] (40 °C, pH 4.5) is < 3; in series [2] (40 °C, pH 5.5) it was < 3; in series [2] (40 °C, pH 6.5), < 3; in series [2] (40 °C, pH 7.5) it was < 3.
Regarding “ATPARPASVAAAPAAVQRAADNPYQRGPAPTEASITAEKGPFAVETIPVPAGSGTGFNKGTVYAPTDTSEGTFGAIVVSPGFVSPEAWISWYGPRLASQGFVVMTLETNSLVDVPASRGDQLLAALDWLTGKSSVKNRIDASRTAVMGHSMGGGGTLEAANKRPSLKADIPLAPWDTNYNFPNIKTPTLIMGADNDLIAPASSMAESYYNNITTAPEKAYLLLKNAGHMTFVSPNTTIAKYSIAWMKRFVDNDTRYDQFLCPAPKPDANIAKYLDTCPNG [DP016]”, the “purified protein yield per well” value in series [1] is 83 µg. The PET hydrolysis in series [2] (40 °C, pH 5.5) is 4; in series [2] (40 °C, pH 6.5), 14; in series [2] (40 °C, pH 7.5) it was 17; in series [2] (40 °C, pH 8.5) it was 4; in series [2] (60 °C, pH 5.5), 10; in series [2] (60 °C, pH 6.5), 10. Further, the PET hydrolysis in series [2] (60 °C, pH 7.5) is 7; in series [2] (60 °C, pH 8.5) it was < 3.

Source of the values: the supplement of paper PMC12455559.
